We go through 6 molecules from article PMC3688267 (Nature structural & molecular biology, 2011).

What all share (assay): ITC
Assay [1] concerns the target T1, human RAP1RCT (RAP1 C-terminal RCT domain, residues 303-399) (human, UniProt Q9NYB0 303-399).
T1 sequence (looked up): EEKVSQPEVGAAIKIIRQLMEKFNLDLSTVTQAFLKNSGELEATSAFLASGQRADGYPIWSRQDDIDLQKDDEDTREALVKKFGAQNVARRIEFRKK

Assay [2] has as its target T2, SpRap1RCT V651R (S. pombe, UniProt Q96TL7 639-693, V651R).
T2 sequence (looked up): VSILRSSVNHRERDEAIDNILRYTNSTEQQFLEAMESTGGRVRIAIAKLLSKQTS

For assay [3], the target named is T3, S. pombe SpRap1RCT (SpRap1 residues 639-693) (S. pombe, UniProt Q96TL7 639-693).
T3 sequence (looked up): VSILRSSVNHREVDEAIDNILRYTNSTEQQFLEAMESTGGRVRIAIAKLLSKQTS

The target of assay [4] is T4, S. cerevisiae ScRap1RCT (ScRap1 residues 679-827) (S. cerevisiae, UniProt P11938 679-827).
T4 sequence (looked up): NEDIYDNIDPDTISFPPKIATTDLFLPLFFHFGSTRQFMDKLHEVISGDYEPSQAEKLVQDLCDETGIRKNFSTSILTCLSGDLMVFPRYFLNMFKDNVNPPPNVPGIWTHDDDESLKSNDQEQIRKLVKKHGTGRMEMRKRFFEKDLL

B1: full-length TRF2 protein (natural protein)
chain: MAGGGGSSDGSGRAAGRRASRSSGRARRGRHEPGLGGPAERGAGEARLEEAVNRWVLKFYFHEALRAFRGSRYGDFRQIRDIMQALLVRPLGKEHTVSRLLRVMQCLSRIEEGENLDCSFDMEAELTPLESAINVLEMIKTEFTLTEAVVESSRKLVKEAAVIICIKNKEFEKASKILKKHMSKDPTTQKLRNDLLNIIREKNLAHPVIQNFSYETFQQKMLRFLESHLDDAEPYLLTMAKKALKSESAASSTGKEDKQPAPGPVEKPPREPARQLRNPPTTIGMMTLKAAFKTLSGAQDSEAAFAKLDQKDLVLPTQALPASPALKNKRPRKDENESSAPADGEGGSELQPKNKRMTISRLVLEEDSQSTEPSAGLNSSQEAASAPPSKPTVLNQPLPGEKNPKVPKGKWNSSNGVEEKETWVEEDELFQVQAAPDEDSTTNITKKQKWTVEESEWVKAGVQKYGEGNWAAISKNYPFVNRTAVMIKDRWRTMKRLGMN
In assay [1], B1 yielded a Kd of 23.9 nM.

LSVKGMLYDSDSQQILNRLRERVSGSTAQSAD (domain or fragment, UniProt P79005 365-396, looked up) [S. pombe Taz1RBM (Taz1 residues 365-396)]: in assay [2], the binding result is given as “binds”. Moreover, the Kd in assay [3] is 2000 nM. For the molecule LSVKGMLYDSDSQQILNRLRERRSGSTAQSAD (domain or fragment, S. pombe, UniProt P79005 365-396, looked up) [Taz1RBM V387R], in assay [3], the binding result is recorded as “binds”. With LSVKGMLYDSDSQQIRNRLRERVSGSTAQSAD (domain or fragment, S. pombe, UniProt P79005 365-396, looked up) [Taz1RBM L380R], in assay [3], the binding result is “binds”. Take QLRNPPTTIGMMTLKAAFKTLSGAQDSEAAFAKLDQKDLVLP (domain or fragment) [human TRF2RBM (RAP1-binding motif, TRF2 residues 275-316)]: in assay [1], the Kd turned out to be 16.5 nM. The molecule EKGNAKMIDFATLSKLKKKYQIILDR (peptide, UniProt P06701 456-481, looked up) [S. cerevisiae Sir3RBM (Sir3 residues 456-481)] showed a dissociation constant Kd in assay [4] of approximately 1800 nM.
